Data set [1] in a line: Storage stability by ENO1 Human Activity Assay Kit (PK/LDH, NADH consumption). The class given is physicochemical. The note with it: 500 ng Eno1; for activity at end of study (Week 10), −20° C.: kept at −20° C.; for activity retained at end of study (Week 10), −80° C.: kept at −80° C.; for Eno1 activity after storage, week 3, 4° C., 22° C., and 37° C.: stored at 4° C.; for Eno1 activity after storage, week 3, 4° C., 22° C., and 37° C. / Eno1 activity after storage, week 3, −80° C. and −20° C.: by week 3; for Eno1 activity after storage, week 3, −80° C. and −20° C.: stored at −80° C. and −20° C.; for Eno1 activity after storage, first week: stored at −80° C., −20° C., 4° C.; for Eno1 activity after storage, week 3, 4° C., 22° C., and 37° C. / Eno1 activity after storage, first week: 22° C., and 37° C. Here is the method:
The stability of the Eno1-dendrimer-SMTP complex was evaluated at different temperatures, and stability was determined over a 3-4 month time period by measuring Eno1 activity using a commercially available Eno1 assay. The selected conjugates were also evaluated using biophysical techniques, including Dynamic Light Scattering (DLS) and UV-Vis spectroscopy to confirm complexation between the dendrimer-peptide conjugate and Eno1.
The stability of the Enolase-I/G5-dendrimer/SMTP conjugates was measured by using the ENO1 Human Activity Assay Kit (ABCAM, Cambridge, Mass.; Catalogue No. ab117994). Briefly, the sample was added to a microplate containing a monoclonal mouse antibody specific to Eno1. The microplate was incubated at room temperature for 2 hours, and Eno1 was immunocaptured within the wells of the microplate. The wells of the microplate were washed to remove all other enzymes. Eno1 activity was determined by following the consumption of NADH in an assay buffer that included pyruvate kinase (PK), lactate dehydrogenase (LDH) and the required substrates 2-phospho-D-glycerate (2PG) and NADH. Eno1 converts 2PG to phosphoenolpyruvate, which is converted to pyruvate by PK. Pyruvate is converted to lactate by LDH, and this reaction requires NADH. The consumption of NADH was monitored as decrease of absorbance at 340 nm.
The activity of Enolase-I/G5-dendrimer/SMTP conjugates that were stored at different temperatures at different time points was measured using the assay described above. A concentration of 500 ng of Eno1 was selected for testing because this concentration falls in the middle of the dynamic range of the assay kit. Two different sets of solutions were prepared. One set (control) contained Eno1 alone (i.e. unconjugated Eno1) and the other set contained Eno1/G5-dendrimer/SMTP mixtures. These mixtures were then kept at −80° C., −20° C., 4° C., 22° C., and 37° C. […] At the end of the study (Week 10), The Eno1/G5-dendrimer/SMTP solution that was kept at −80° C. retained about 90% of its activity whereas Eno1 alone was only 35% active. On the other hand, Eno1/G5-dendrimer/SMTP solution that was kept at −20° C. was about 24% active, whereas Eno1 alone stored at −20° C. was not active.

Data set [2] is described as follows: Tissue distribution of detectably labeled Eno1 PAMAM dendrimer complexes in mice (LI-COR imaging). The class given is in vivo. The method, then:
A detectably labeled PAMAM dendrimer complex containing Eno1 was prepared using the method provided in the prior example and analyzed for tissue distribution in mice after subcutaneous injection. Specifically, for 72 hours prior to injection mice were fed alfalfa free food to limit background fluorescence. Mice were injected with 3 μg ENO1/mouse subcutaneously 150 μl total (75 μl left laterally, 75 μl right laterally). The molar ratio of dendrimer to Eno1 in the complex was 5:1. One, 4, and 24 hours post injection animals were sacrificed, skinned, and organs removed in preparation for LI-COR imaging.
A follow-up study was performed using the skeletal muscle targeted Eno1-PAMAM dendrimer complex containing the SMTP “ASSLNIA”. A detectably labeled PAMAM dendrimer complex containing Eno1 and SMTP ((Enolase-Vivo Tag680xl)-(G5-SMTP)) was prepared using the method provided in the prior example. The molar ratio of dendrimer to SMTP in the complex was 1:1. The experiments were performed essentially as described above. The skeletal muscle targeted Eno1-PAMAM dendrimer complex was administered at a dose of 50 μg/kg body weight. These images in FIG. 6B were taken after 1 hr of injection. Organs, other than the heart, were retained in the body.

The next data set relates to db/db mice. Briefly: Body weight / weight gain in db/db mice treated with rosiglitazone and muscle targeted Eno1/dendrimer complex. The note with it: Eno1 400 μg/kg/day subcutaneous added to rosiglitazone 20 mg/kg/day. The class given is in vivo. The method, then: A muscle targeted Eno1/dendrimer complex was generated to analyze its efficacy in reducing weight gain. The dendrimer complex comprised human Eno1, transcript variant 1 protein (SEQ ID NO: 2) which was non-covalently linked to a G5-PAMAM dendrimer/muscle targeting peptide (MTP) (ASSLNIA; SEQ ID NO: 7) conjugate. Stock solutions of Eno1 were prepared in buffer and the protein solution was mixed with the G5 dendrimer-MTP conjugate.
Lean mice and male obese and diabetic db/db mice (male BKS.Cg-m+/+Lepr^db/J) mice were obtained from a commercial vendor. All mice were housed 2-3 per cage at 22° C. on a 12:12 hr day-night cycle and were acclimated for 3 weeks at animal facility on a standard chow diet. At 8 weeks of age, 200 μg/kg body weight Eno1 was administered twice daily (at 9:00 a.m. and 5:00 p.m., 400 μg/kg daily dose) by subcutaneous injection, and 20 mg/kg body weight rosiglitazone was administered once daily by gavage at 9:00 a.m. Lean mice and db/db mice also received subcutaneous injections of saline as a control. The treatment groups were as follows: • 1. lean mice with saline injection (control) • 2. db/db mice with saline injection (control) • 3. db/db mice with rosiglitazone (20 mg/kg, once daily) • 4. db/db mice with rosiglitazone (20 mg/kg, once daily)+Eno1 (200 μg/kg, twice daily) […]

Here are results for five substances from US20160375113A1, “COMPOSITIONS COMPRISING ENO1 AND THEIR USE IN METHODS OF TREATING OBESITY OR OVERWEIGHT AND REDUCING WEIGHT GAIN” (Berg LLC, priority 2015, published 2016).

Entries after “also recorded” stand apart in the source; their conditions may differ.

For the substance “Eno1 alone: Eno1 alone (i.e. unconjugated Eno1), control in the stability study”, in data set [1], the “activity at end of study (Week 10), −20° C.” value was “not active”; the “activity retained at end of study (Week 10), −80° C.” value is 35%; the “Eno1 activity after storage, week 3, 4° C., 22° C., and 37° C.” value is “no activity”; the “Eno1 activity after storage, week 3, −80° C. and −20° C.” value is on record as “significant stability”. Besides, in data set [1], the “Eno1 activity after storage, first week” value is given as “active”.
“Eno1-PAMAM dendrimer: detectably labeled PAMAM dendrimer complex containing Eno1, molar ratio of dendrimer to Eno1 5:1, no targeting peptide”: in data set [2] (subcutaneous, 3 μg ENO1/mouse, dendrimer to Eno1 5:1, 1 hour (FIG. 6A)), the “tissue distribution, 1 hour post injection” value was “general systemic distribution”. In addition, in data set [2] (subcutaneous, 3 μg ENO1/mouse, dendrimer to Eno1 5:1, 4 hours (FIG. 6A)), the “tissue distribution, 4 hours post injection” value was “significant accumulation of the Eno1-PAMAM dendrimer was observed in liver, kidney, and subcutaneous fat, as well as in the upper torso”. The “tissue distribution, 24 hours post injection” value in data set [2] (subcutaneous, 3 μg ENO1/mouse, dendrimer to Eno1 5:1, 24 hours (FIG. 6A)) is “substantially cleared and observed substantially in the liver and kidney”.
Take “Eno1/G5-dendrimer/SMTP: Eno1 complexed with Generation 5 PAMAM dendrimers decorated with Skeletal Muscle Targeting Peptides (SMTPs)”: in data set [1], the “activity at end of study (Week 10), −20° C.” value was “about 24%”; the “activity retained at end of study (Week 10), −80° C.” value is “about 90%”; the “Eno1 activity after storage, week 3, 4° C., 22° C., and 37° C.” value is given as “no activity”; the “Eno1 activity after storage, week 3, −80° C. and −20° C.” value is listed as “significant stability”. Also, the “Eno1 activity after storage, first week” value in data set [1] is “active; also recorded: slightly higher activity than Eno1 alone”.
As for “Eno1: In Example 1: human Eno1 transcript variant 1 protein (SEQ ID NO: 2) non-covalently linked to G5-PAMAM dendrimer/muscle targeting peptide (ASSLNIA) conjugate”, the “effect on rosiglitazone-induced weight gain” value in the data set with db/db mice is listed as “attenuates rosiglitazone-induced weight gain; also recorded: attenuates rosiglitazone induced weight gain; also recorded: attenuated”.
Turning to “muscle-targeted Eno1 dendrimer complex: detectably labeled PAMAM dendrimer complex containing Eno1 and SMTP ASSLNIA, dendrimer to SMTP 1:1”, the “tissue distribution of muscle targeted complex, 1 hr after injection” value in data set [2] (50 μg/kg body weight, dendrimer to SMTP 1:1, 1 hr (FIG. 6B)) is recorded as “targeted to skeletal muscle, not heart”.
